From patent US20020081652A1

Tests used:
mAb 198 [1] = assay: competition ELISA: polypeptide preincubated with mAb 198, binding of mAb 198 to coated Torpedo AChR read
mAb 198 [2] = assay: competition ELISA: fragment preincubated with mAb 198, binding of mAb 198 to coated Torpedo AChR read
mAb 198 [3] = assay: cell-based or functional assay
[4] = target: human muscle-type AChR on TE671 cells (human) (UniProt P02708); assay: cell-based or functional assay

Substance: Hα1-121+p3A fused to glutathione S-transferase (GST) at the N-terminus (receptor)
- IC50 (mAb 198 [1]): 100 nM

Substance: Hα1-210+p3A fused to glutathione S-transferase (GST) at the N-terminus (from UniProt P08515 1-218) (receptor)
- IC50 (mAb 198 [2]): 1300 nM
- IC50 (mAb 198 [1]): 180 nM

Substance: Hα1-121 fused to glutathione S-transferase (GST) at the N-terminus (from UniProt P02708 21-141) (receptor)
- protection of TE671 cells against AChR degradation induced by mAb 198 (residual α-BTX binding sites) (mAb 198 [3]): 100 µg/mL

Substance: mAb 198 (antibody)
- residual AChR on TE671 cells (α-BTX binding sites) after 3 h incubation with 1 µg/ml mAb [4]: 41%
